Reference: patent US20240041922A1, “METHODS AND COMPOSITIONS” (Monash University, priority 2020, published 2024)

Biological target: zebrafish Ccr5 (Ccr5-like, on pax3a+ muscle stem cells of larval zebrafish) (zebrafish)
Assay: cell-based or functional assay

wound site proliferation in larval zebrafish (EdU): 28.3%
Substance: recombinant murine CCL8/MCP-2 (PeproTech) (from UniProt Q9Z121 24-97) (ligand)
cell proliferation external to the site of injury in larval zebrafish (EdU): 43%
